Test results published in patent US20050026839A1 (GENERAL HOSPITAL, published 2005).
Square brackets hold non-standard residues; d marks the D form. Ends that are not written are not given here. hArg = N=C(N)NCCCC[C@H](N)C(=O)O; Nle = CCCC[C@H](N)C(=O)O

Target: T1, truncated human P1R deleted for residues (24-181) (hP1R-delNt) (human, UniProt Q03431 182-593)
T1 construct: whole, on cells; also called delNT receptor
T1 sequence (looked up): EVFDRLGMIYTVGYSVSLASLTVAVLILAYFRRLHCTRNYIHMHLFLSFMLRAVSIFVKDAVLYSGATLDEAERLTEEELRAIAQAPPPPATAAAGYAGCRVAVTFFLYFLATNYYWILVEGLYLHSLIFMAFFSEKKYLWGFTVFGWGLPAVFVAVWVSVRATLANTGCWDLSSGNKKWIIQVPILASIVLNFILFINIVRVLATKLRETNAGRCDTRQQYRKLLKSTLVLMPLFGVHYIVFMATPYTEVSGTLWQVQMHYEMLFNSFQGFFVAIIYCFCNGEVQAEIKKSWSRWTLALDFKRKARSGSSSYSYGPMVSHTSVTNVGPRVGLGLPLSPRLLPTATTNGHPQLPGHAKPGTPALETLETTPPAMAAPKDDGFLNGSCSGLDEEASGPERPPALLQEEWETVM
Experiment: radioligand binding, COS-7 cells with P1R-delNt

B1: ^125I-[M]PTH(1-21) (peptide)
peptide: AVAEIQL[Nle]HQ[hArg]AKWLASVRRY-NH2
modifications: also: 125I radioiodinated, residue not given here
notes: Tracer radioligand
B1: no binding.
